The Immune Epitope Database (IEDB)

Assays:
[1] = molecular target: HLA-B*15:17; assay: IEDB peptide-MHC binding, purified MHC/direct/fluorescence; filed as Kd, often an IC50 or EC50 that approximates it; ≥ and ≤ were set here for values at or beyond the usual limits of such assays
[2] = molecular target: HLA-B*57:01; assay: as above
[3] = molecular target: HLA-B*58:01; assay: as above
[4] = molecular target: HLA-B*48:01; assay: as above
[5] = molecular target: HLA-A*03:01; assay: as above
[6] = molecular target: HLA-A*11:01; assay: as above
[7] = molecular target: HLA-A*31:01; assay: IEDB peptide-MHC binding, purified MHC/competitive/fluorescence; filed as Kd, often an IC50 or EC50 that approximates it; ≥ and ≤ were set here for values at or beyond the usual limits of such assays
[8] = molecular target: HLA-B*57:01; assay: IEDB peptide-MHC binding, purified MHC/competitive/radioactivity; filed as Kd, often an IC50 or EC50 that approximates it; ≥ and ≤ were set here for values at or beyond the usual limits of such assays
[9] = molecular target: HLA-B*58:01; assay: as above
[10] = molecular target: HLA-A*31:01; assay: as above; conditions: source organism: Dengue virus 2 Jamaica/1409/1983
[11] = molecular target: HLA-A*68:01; assay: as above; conditions: source organism: Dengue virus 2 Jamaica/1409/1983
[12] = molecular target: HLA-A*02:01; assay: IEDB peptide-MHC binding, purified MHC/competitive/fluorescence; ≥ and ≤ were set here for values at or beyond the usual limits of such assays; conditions: source organism: Zaire ebolavirus
[13] = molecular target: HLA-A*11:01; assay: as above; conditions: source organism: Zaire ebolavirus
[14] = molecular target: HLA-B*53:01; assay: IEDB peptide-MHC binding, purified MHC/competitive/radioactivity; filed as Kd, often an IC50 or EC50 that approximates it; ≥ and ≤ were set here for values at or beyond the usual limits of such assays; conditions: source organism: Dengue virus 2 Jamaica/1409/1983
[15] = molecular target: HLA-A*68:02; assay: IEDB peptide-MHC binding, purified MHC/competitive/fluorescence; filed as Kd, often an IC50 or EC50 that approximates it; ≥ and ≤ were set here for values at or beyond the usual limits of such assays; conditions: source organism: Toxoplasma gondii
[16] = molecular target: HLA-A*24:02; assay: IEDB peptide-MHC binding, purified MHC/competitive/fluorescence; ≥ and ≤ were set here for values at or beyond the usual limits of such assays; conditions: source organism: Zaire ebolavirus
[17] = molecular target: HLA-A*02:01; assay: IEDB peptide-MHC binding, purified MHC/direct/fluorescence; filed as Kd, often an IC50 or EC50 that approximates it; ≥ and ≤ were set here for values at or beyond the usual limits of such assays
[18] = molecular target: HLA-A*02:12; assay: as above; conditions: source organism: Ravn virus - Ravn, Kenya, 1987
[19] = molecular target: HLA-A*69:01; assay: as above
[20] = molecular target: HLA-A*23:01; assay: IEDB peptide-MHC binding, purified MHC/competitive/radioactivity; filed as Kd, often an IC50 or EC50 that approximates it; ≥ and ≤ were set here for values at or beyond the usual limits of such assays; conditions: source organism: Dengue virus 2 Jamaica/1409/1983
[21] = molecular target: HLA-A*24:02; assay: as above; conditions: source organism: Dengue virus 2 Jamaica/1409/1983
[22] = molecular target: HLA-A*01:01; assay: IEDB peptide-MHC binding, purified MHC/direct/fluorescence; filed as Kd, often an IC50 or EC50 that approximates it; ≥ and ≤ were set here for values at or beyond the usual limits of such assays; conditions: source organism: Camelpox virus M-96
[23] = molecular target: HLA-A*31:01; assay: as above; conditions: source organism: Camelpox virus M-96
[24] = molecular target: HLA-A*68:02; assay: as above; conditions: source organism: Camelpox virus M-96
[25] = molecular target: HLA-B*07:02; assay: as above; conditions: source organism: Camelpox virus M-96
[26] = molecular target: HLA-B*18:01; assay: as above; conditions: source organism: Camelpox virus M-96
[27] = molecular target: HLA-B*27:05; assay: as above; conditions: source organism: Camelpox virus M-96
[28] = molecular target: HLA-B*40:01; assay: as above; conditions: source organism: Camelpox virus M-96
[29] = molecular target: HLA-B*44:02; assay: as above; conditions: source organism: Camelpox virus M-96
[30] = source organism: Giardia lamblia ATCC 50803
[31] = source organism: West Nile virus
[32] = source organism: Rickettsia massiliae
[33] = source organism: Dengue virus 2 Jamaica/1409/1983
[34] = source organism: Mammarenavirus lassaense
[35] = source organism: Lassa virus GA391
[36] = source organism: Dengue virus 1 Brazil/97-11/1997
[37] = source organism: Salmonella enterica
[38] = source organism: Dengue virus 1 Singapore/S275/1990
[39] = source organism: Rickettsia prowazekii
[40] = source organism: Coxiella burnetii
[41] = source organism: Marburg virus - Musoke, Kenya, 1980
[42] = source organism: Camelpox virus M-96

## KAMSTPFSL
[1]; [30]
  Kd: 1.3 nM
[2]; [30]
  Kd: 84.9 nM
[3]; [30]
  Kd: 15.3 nM

## RRWCFDGPR
[4]; [31]
  Kd: ≥ 20000 nM

## MGFGHRIYK
[5]; [32]
  Kd: 3.7 nM
[6]; [32]
  Kd: 3.2 nM
[7]; source organism: Dictyostelium discoideum
  Kd: 1.43 nM

## NSSVNVSLTA
[8]; [33]
  Kd: 433 nM
[9]; [33]
  Kd: 10 nM

## ASSMVNGVVR
[10]
  Kd: ≥ 44100 nM
[11]
  Kd: 47.7 nM
[8]; [33]
  Kd: 1400 nM
[9]; [33]
  Kd: 2060 nM

## KAAVEDEEFW
[9]; source organism: Dengue virus 3 Sri Lanka/1266/2000
  Kd: 11.4 nM

## MTMPLSCTK
[5]; [34]
  Kd: 622 nM
[6]; [34]
  Kd: 2.3 nM
[7]; [35]
  Kd: 671 nM

## NTIAGVAGL
[12]
  IC50: 32000 nM
[13]
  IC50: ≥ 144000 nM

## GSSIGKMFEA
[8]; [36]
  Kd: 853 nM
[9]; [36]
  Kd: 3000 nM

## IVYLIDCER
[5]; [37]
  Kd: 939 nM
[6]; [37]
  Kd: ≥ 20000 nM
[7]; source organism: Salmonella enterica subsp. arizonae
  Kd: 88.3 nM

## FTSVGKLVHQ
[8]; [36]
  Kd: 2390 nM
[9]; [36]
  Kd: 1360 nM

## RLCYGGPWK
[5]; [31]
  Kd: 517 nM
[6]; [31]
  Kd: 358 nM
[7]; [31]
  Kd: ≥ 20000 nM

## KTSVGVNMCT
[8]; [38]
  Kd: 8160 nM
[9]; [38]
  Kd: 1810 nM

## STYGISEDL
[1]; [39]
  Kd: 256 nM
[2]; [39]
  Kd: ≥ 20000 nM
[3]; [39]
  Kd: ≥ 20000 nM

## AVFVDENQW
[8]; [36]
  Kd: 0.913 nM

## HSGDSSCAF
[1]; [40]
  Kd: 252 nM
[2]; [40]
  Kd: ≥ 20000 nM
[3]; [40]
  Kd: 750 nM

## EAVEDSRFW
[14]
  Kd: 13 nM
[8]; [33]
  Kd: 22.2 nM

## LINDQLIMK
[5]; [34]
  Kd: ≥ 20000 nM
[6]; [34]
  Kd: 285 nM
[7]; [35]
  Kd: ≥ 20000 nM

## HNFRAPAPV
[15]
  Kd: ≤ 0.1 nM

## EAIVNAQPK
[13]
  IC50: 34900 nM
[16]
  IC50: 28400 nM

## ALKEAIEMV
[17]; [41]
  Kd: 127 nM
[18]
  Kd: 4 nM
[19]; [41]
  Kd: 1800 nM

## TWSIHAKHEW
[20]
  Kd: 1950 nM
[21]
  Kd: 39.9 nM
[9]; [33]
  Kd: 14.8 nM

## YERGNIIIF
[22]
  Kd: ≥ 20000 nM
[17]; [42]
  Kd: ≥ 20000 nM
[6]; [42]
  Kd: ≥ 20000 nM
[23]
  Kd: ≥ 20000 nM
[24]
  Kd: ≥ 20000 nM
[19]; [42]
  Kd: ≥ 20000 nM
[25]
  Kd: ≥ 20000 nM
[1]; [42]
  Kd: ≥ 20000 nM
[26]
  Kd: 31.9 nM
[27]
  Kd: ≥ 20000 nM
[28]
  Kd: 154 nM
[29]
  Kd: ≥ 20000 nM
[4]; [42]
  Kd: ≥ 20000 nM
[2]; [42]
  Kd: ≥ 20000 nM
[3]; [42]
  Kd: ≥ 20000 nM
